The target of the experiment is human IL-2 receptor (IL-2Rα, IL-2Rβ, IL-2Rγ) (human) (UniProt P01589). As to the kind of experiment: cell-based or functional assay.
Sequence of human IL-2 receptor (IL-2Rα, IL-2Rβ, IL-2Rγ) (human) (P01589 22-272, chain 1 of 3): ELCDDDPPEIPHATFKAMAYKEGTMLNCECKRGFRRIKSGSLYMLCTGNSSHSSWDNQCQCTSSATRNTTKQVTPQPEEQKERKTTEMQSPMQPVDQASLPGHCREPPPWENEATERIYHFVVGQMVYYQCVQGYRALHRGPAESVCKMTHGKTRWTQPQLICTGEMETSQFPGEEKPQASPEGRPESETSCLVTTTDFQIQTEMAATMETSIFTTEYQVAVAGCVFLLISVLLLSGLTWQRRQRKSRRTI
Sequence of human IL-2 receptor (IL-2Rα, IL-2Rβ, IL-2Rγ) (human) (P14784 27-551, chain 2 of 3, further chain): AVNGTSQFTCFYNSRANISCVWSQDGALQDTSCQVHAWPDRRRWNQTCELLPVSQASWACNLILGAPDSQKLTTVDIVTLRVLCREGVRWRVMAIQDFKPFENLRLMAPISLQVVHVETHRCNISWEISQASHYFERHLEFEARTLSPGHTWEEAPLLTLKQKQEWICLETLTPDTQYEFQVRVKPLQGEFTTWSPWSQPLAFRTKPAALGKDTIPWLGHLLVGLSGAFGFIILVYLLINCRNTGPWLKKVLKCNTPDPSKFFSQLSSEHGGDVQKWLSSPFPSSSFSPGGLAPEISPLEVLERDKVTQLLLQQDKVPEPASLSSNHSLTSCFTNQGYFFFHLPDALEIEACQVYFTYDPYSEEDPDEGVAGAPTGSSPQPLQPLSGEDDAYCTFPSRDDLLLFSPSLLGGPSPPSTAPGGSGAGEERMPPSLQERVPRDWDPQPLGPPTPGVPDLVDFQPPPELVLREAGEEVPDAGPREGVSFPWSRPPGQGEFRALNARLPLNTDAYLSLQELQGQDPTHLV
Sequence of human IL-2 receptor (IL-2Rα, IL-2Rβ, IL-2Rγ) (human) (P31785 23-369, chain 3 of 3, further chain): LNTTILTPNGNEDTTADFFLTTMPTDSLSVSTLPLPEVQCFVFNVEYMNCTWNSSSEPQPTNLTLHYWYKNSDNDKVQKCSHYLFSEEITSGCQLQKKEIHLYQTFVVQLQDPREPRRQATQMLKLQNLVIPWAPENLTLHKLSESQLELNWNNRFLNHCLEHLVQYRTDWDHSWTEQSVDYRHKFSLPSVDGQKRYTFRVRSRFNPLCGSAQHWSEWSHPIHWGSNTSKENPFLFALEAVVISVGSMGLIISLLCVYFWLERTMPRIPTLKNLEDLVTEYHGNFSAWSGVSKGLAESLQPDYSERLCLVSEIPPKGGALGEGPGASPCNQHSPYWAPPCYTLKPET

B1: Fab-Fc-IL-2 mutant-CD3 Ab (protein, part only; not given: constant regions and IL-2 junction, not shown: a dimerising Fc or GST)
light: EIVMTQSPGTLSLSPGESATLSCSASLSVSFMHWFQQKPGHAPRLLIYRTSNLASGVPDRFSGSGSGTDFTLTISRLEPEDFAVYYCQQRSSDPPTFGQGTRLEIKRTVAAPSVFIFPPSDEQLKSGTASVVCLLNNFYPREAKVQWKVDNALQSGNSQESVTEQDSKDSTYSLSSTLTLSKADYEKHKVYACEVTHQGLSSPVTKSFNRGEC
heavy, part 1: EVQLVESGGGLVQPGRSLRLSCTASGFTFSYFWMNWVRQAPGKGLEWVGEIRLRSDNYATHYAESVKGRFTISRDDSKSIAYLQMNSLKTEDTALYYCTRDWEFTYWGQGTTVTVSSAS
heavy, part 2: EVQLVESGGGLVQPGRSLRLSCTASGFTFSYFWMNWVRQAPGKGLEWVGEIRLRSDNYATHYAESVKGRFTISRDDSKSIAYLQMNSLKTEDTALYYCTRDWEFTYWGQGTTVTVSSASAPTSSSTKKTQLQLEHLLLDLQMILNGINNYKNPKLTDMLTFEFYMPKKATELKHLQCLERELKPLEEVLNLAQSKNFHLRPRDLISNINVIVLELKGSETTFMCEYADETATIVEFLNRWITFCQSIISTLT
B1: the Percent T-cell proliferation (PBMC proliferation assay) came to 52%.

These data come from patent publication US20240190962A1.
